Assay [1] addresses T1, human IL-13 (human, UniProt P35225 35-146, limits assumed). Description: cell-based or functional assay.
The target in assay [2] is T1, human IL-13. Nature of the assay: AlphaScreen; hIL-13:hIL-13Rα1:hIL4Rα ternary complex. For orientation: In Alpha technology, singlet oxygen from a donor bead excites a nearby acceptor bead.
Assay [3] concerns the target T2, cyno IL-13 (cynomolgus monkey, UniProt Q0PW92 21-132). Description: cell-based or functional assay.
For assay [4], the target named is T1, human IL-13. Nature of the assay: cell-based or functional assay. This is another data set of the same source.
Assay [5] concerns the target T2, cyno IL-13. Description: cell-based or functional assay. The source holds these as a separate data set.
Assay [6] deals with T1, human IL-13. Nature of the assay: AlphaScreen; hIL-13 to hIL-13Rα1-hFc.
Assay [7] concerns the target T1, human IL-13. Nature of the assay: SPR, hIL-13. Background: Surface plasmon resonance follows binding to a sensor surface in real time, without labels.
For assay [8], the target named is T1, human IL-13. Nature of the assay: cell-based or functional assay. This is another data set of the same source.
For assay [9], the target named is T1, human IL-13. Description: AlphaScreen, purified ISVD; hIL-13 to hIL-13Rα1-hFc.
Assay [10] has as its target T3, hIL13-Fc (human, UniProt P35225 25-146).
T3 construct: not shown: Fc part and any linker not described
Description: SPR (ProteOn XPR36), periplasmic extract over immobilised Fc fusion.

Assay [11] deals with T4, cyno IL13-Fc (cynomolgus monkey, UniProt Q0PW92 11-132).
T4 construct: not shown: Fc part and any linker not described
The assay is described as above.

Assay [12] concerns the target T1, human IL-13. Nature of the assay: AlphaScreen, purified ISVD; hIL-13:hIL-13Rα1:hIL4Rα ternary complex.
The target of assay [13] is T1, human IL-13. Description: SPR, hIL-13 from Peprotech (cat nr 200-13).
Assay [14] concerns the target T1, human IL-13. Description: cell-based or functional assay. This is another data set of the same source.
The target in assay [15] is T1, human IL-13. Nature of the assay: SPR, hIL-13 from Peprotech (cat nr 200-13). This is another data set of the same source.
Assay [16] concerns the target T5, human TSLP (human, UniProt Q969D9 29-159).
T5 construct: also called hTSLP; hTSP
Nature of the assay: SPR, hTSLP.

In assay [17] the target is T6, cyno TSLP (cynomolgus monkey, UniProt A0A7N9CAT7 29-159).
T6 construct: also called cynomolgus monkey TSLP
Nature of the assay: SPR, cyno TSLP.

For assay [18], the target named is T5, human TSLP. Description: AlphaScreen; hTSLP:hTSLPR:hIL7Rα ternary complex.
The target of assay [19] is T7, hTSLP-Fc (human, UniProt Q969D9 29-159). Nature of the assay: cell-based or functional assay.
The target of assay [20] is T8, cyno TSLP-Fc (cynomolgus monkey, UniProt A0A7N9CAT7 29-159). Description: cell-based or functional assay.
The target of assay [21] is T5, human TSLP. Description: AlphaScreen, purified ISVD; hTSLP to hTSLPR.
For assay [22], the target named is T7, hTSLP-Fc. Nature of the assay: SPR (BIAcore T100), Fc fusion captured by anti-huIgG.
Assay [23] addresses T8, cyno TSLP-Fc. The assay is described as above.
For assay [24], the target named is T5, human TSLP. Nature of the assay: AlphaScreen, purified ISVD; hTSLP:hTSLPR:hIL7Rα ternary complex.
Assay [25] addresses T7, hTSLP-Fc. Nature of the assay: SPR (ProteOn XPR36), periplasmic extract over immobilised Fc fusion.
In assay [26] the target is T8, cyno TSLP-Fc. The description is as above.
Assay [27] addresses T5, human TSLP. Description: SPR, hTSLP. The source holds these as a separate data set.
Assay [28] concerns the target T6, cyno TSLP. Nature of the assay: SPR, cyno TSLP. The source holds these as a separate data set.
For assay [29], the target named is T7, hTSLP-Fc. Description: SPR, hTSLP-hFc.
Assay [30] deals with T8, cyno TSLP-Fc. Description: SPR, cyno TSLP-hFc.
In assay [31] the target is T8, cyno TSLP-Fc. Description: SPR; the KD column is on cyno TSLP-hFc.

Residue numbers refer to the chain shown, from its start. Names and notes keep the numbering of the source. Like-named read-outs stand apart in the source and are kept apart here.

As usually defined, the % inhibition is how much of the control response was suppressed. As a reminder, the IC50 is the concentration needed to halve the response being measured. Lower therefore signals inhibition by little substance. As a reminder, the Kd is the constant that tells how readily two partners part at equilibrium. Broadly, the koff is the rate constant with which the complex falls apart. The kon is the second-order rate constant of association. Read a high kon as fast association.

B1: F010700031 (VHH)
chain: EVQLVESGGGLVQPGGSLRLSCAASGFTFNNYAMKWVRQAPGKGLEWVSSITTGGGSTDYADSVKGRFTISRDNRKNTLYLQMNSLKPEDTAVYYCANVPFGYYSEHFSGLSFDYRGQGTLVTVSSGGGGSGGGGSGGGGSGGGGSGGGGSGGGGSGGGGSEVQLVESGGGLVQPGGSLRLSCAASGFTFNNYAMKWVRQAPGKGLEWVSSITTGGGSTDYADSVKGRFTISRDNRKNTLYLQMNSLKPEDTAVYYCANVPFGYYSEHFSGLSFDYRGQGTLVTVSS
notes: Bivalent anti-IL-13 construct of two VHHs, Pichia pastoris, FLAG3-HIS6-tagged; also called F0107004B06-35GS-F0107004B06; not shown: FLAG3-HIS6 tag
B1: the “IC50, TF1 proliferation assay, 200 pM hIL13” value (“IC50 … 200 pM hIL13” below) in assay [1] stood at 1e-07 M. In addition, in [2], the “% inhibition” value was 99% and 0.66 nM corresponded to half-maximal inhibition (IC50).

B2: F010700029 (bispecific antibody)
chain: EVQLVESGGGLVQAGGSLRLSCAASGRTFSSYRMGWFRQAPGKEREFVAALSGDGYSTYTANSVNSRFTISRDNAKNTVYLQMNSLKPEDTAIYYCAAKLQYVSGWSYDYPYWGQGTLVTVSSGGGGSGGGGSGGGGSGGGGSGGGGSGGGGSGGGGSEVQLVESGGGLVQPGGSLRLSCAASGFTFNNYAMKWVRQAPGKGLEWVSSITTGGGSTDYADSVKGRFTISRDNRKNTLYLQMNSLKPEDTAVYYCANVPFGYYSEHFSGLSFDYRGQGTLVTVSS
notes: Biparatopic anti-IL-13 construct of two VHHs, Pichia pastoris, FLAG3-HIS6-tagged; also called F0107004B02-35GS-F0107004B06; not shown: FLAG3-HIS6 tag
Turning to B2, in assay [1], the “IC50 … 200 pM hIL13” value was determined as 2e-11 M. In addition, the “IC50, TF1 proliferation assay, 200 pM cyno IL13” value in [3] is 2.5e-10 M. Also, the “IC50, IL-13 induced A549 eotaxin release assay” value in assay [4] turned out to be 0.21 nM; in assay [5], 0.15 nM. For the same molecule, the “% inhibition” value in assay [6] turned out to be 99%; in assay [2], 100%. Besides, the values for the half-inhibitory concentration (IC50) in [6] and in [2] were 0.31 nM and 3 nM, respectively.

B3: F0107004B06 (VHH)
VHH: EVQLVESGGGLVQPGGSLRLSCAASGFTFNNYAMKWVRQAPGKGLEWVSSITTGGGSTDYADSVKGRFTISRDNRKNTLYLQMNSLKPEDTAVYYCANVPFGYYSEHFSGLSFDYRGQGTLVTVSS
notes: Wild-type anti-IL-13 ISVD; also called F010704B06; F107004B06; not shown: c-myc, His6 tag of the purified protein
For B3, the Kd in assay [7] is 26 nM. Also, the koff worked out at 0.0033 s⁻¹ in assay [7], 0.0063 s⁻¹ in assay [10] and 0.0089 s⁻¹ in assay [11]. Besides, the kon in assay [7] was 250000 M⁻¹ s⁻¹. Moreover, the “IC50, IL-13-induced TF-1 proliferation assay” value in assay [8] was 10000 nM. The IC50 is 61 nM in assay [9] and 6.7 nM in [12].

B4: F027100183 (VHH)
VHH: B3 VHH with L11V, R75S, K87R, V93L
notes: E. coli, IMAC; also called F0107004B06 (L11V, R74S, K83R, V89L)
In assay [13], B4 gave a dissociation constant (Kd) of 27 nM, an off-rate constant (koff) of 0.0075 s⁻¹ and an association rate constant (kon) of 280000 M⁻¹ s⁻¹.

B5: F010700003 (bispecific antibody)
chain: EVQLVESGGGLVQPGGSLRLSCAASGFTFNNYAMKWVRQAPGKGLEWVSSITTGGGSTDYADSVKGRFTISRDNRKNTLYLQMNSLKPEDTAVYYCANVPFGYYSEHFSGLSFDYRGQGTLVTVSSGGGGSGGGGSGGGGSGGGGSGGGGSGGGGSGGGGSEVQLVESGGGLVQAGGSLRLSCAASGRTFSSYRMGWFRQAPGKEREFVAALSGDGYSTYTANSVNSRFTISRDNAKNTVYLQMNSLKPEDTAIYYCAAKLQYVSGWSYDYPYWGQGTLVTVSS
notes: Biparatopic anti-IL-13 construct of two VHHs, expressed in Pichia pastoris as FLAG3-HIS6-tagged protein; also called F0107004B06-35GS-F0107004B02; not shown: FLAG3-HIS6 tag
Consider B5, for which, in assay [1], the “IC50 … 200 pM hIL13” value is 1.2e-08 M. For the same molecule, the entries for the “% inhibition” value in [6] and in [2] were 99% and 100%, respectively. Besides, the results for the IC50 in [6] and in assay [2] were 0.13 nM and 3.4 nM, respectively.

B6: F027100019 (VHH)
VHH: DVQLVESGGGVVQPGGSLRLSCAASGRTFSSYRMGWFRQAPGKEREFVAALSGDGYSTYTANSVKGRFTISRDNSKNTVYLQMNSLRPEDTALYYCAAKLQYVSGWSYDYPYWGQGTLVTVSS
notes: Expressed in E. coli, purified by IMAC; also called F0107004B02 (E1D, L11V, A14P, N64K, S65G, A74S, K83R, I89L)
For the molecule B6, in assay [14], the “IC50 (nM) Eotaxin release assay” value turned out to be 47 nM. In assay [15], this molecule gave an equilibrium dissociation constant (Kd) of 34 nM, a koff of 0.0012 s⁻¹ and an association rate constant (kon) of 35000 M⁻¹ s⁻¹.

B7: F010704076 (VHH)
VHH: EVQLVESGGGLVQPGGSLRLSCAASGSGFGVNILYWYRQAAGIERELIASITSGGITNYVDSVKGRFTISRDNSENTMYLQMNSLRAEDTGVYYCASRNIFDGTTEWGQGTLVTVSS
notes: E. coli, IMAC; also called F0107501A02 (A14P, E16G, A74S, K83R)
As to B7, the koff is 6.2e-05 s⁻¹ in [16] and 0.0016 s⁻¹ in assay [17]. Moreover, in [18], the IC50 was 0.27 nM.

B8: F027400160 (VHH)
VHH: B7 VHH with L11V, V92L
notes: E. coli, IMAC; also called F0107501A02 (L11V, A14P, E16G, A74S, K83R, V89L)
For the molecule B8, the koff in assay [16] stood at 0.00012 s⁻¹; in [17], 0.0043 s⁻¹.

B9: F0107501A02 (VHH)
VHH: B7 VHH with P14A, G16E, S74A, R86K
notes: Wild-type anti-TSLP ISVD; not shown: c-myc, His6 tag of the purified protein
For B9, the koff in assay [16] was 5.4e-05 s⁻¹; in [17] it was 0.0015 s⁻¹; in assay [22] it was 5.7e-05 s⁻¹; in assay [23] it was 0.0018 s⁻¹; in [25] it was 3.6e-05 s⁻¹; in assay [26], 0.00066 s⁻¹. In addition, the “IC50, TSLP-induced BaF3 cell proliferation assay” value in assay [19] and in assay [20] was greater than 1000 nM throughout. The IC50 in assay [21] amounted to 0.3 nM; in assay [18], 0.28 nM; in assay [24] it was 0.35 nM. For the same molecule, the Kd in assay [22] is 0.51 nM; in [23] it was 25 nM. Moreover, the kon in assay [22] stood at 110000 M⁻¹ s⁻¹; in [23], 73000 M⁻¹ s⁻¹.

B10: F010704099 (VHH)
VHH: EVQLVESGGGLVQPGGSLRLSCAASGFTFADYDYDIGWFRQAPGKEREGVSCISNRDGSTYYADSVKGRFTISRDNSKNTVYLQMNSLRPEDTAVYYCAVEIHCDDYGVENFDFDPWGQGTLVTVSS
notes: E. coli, IMAC; also called F0107529F10 (A14P, T60A, S71R, A74S, S79Y, K83R)
As for B10, the koff in assay [27] amounted to 7.7e-05 s⁻¹; in [28], 0.0018 s⁻¹. Besides, the Kd in assay [29] stood at 0.038 nM; in assay [30], 3.3 nM. Besides, the “fold lower affinity against parental ISVD F0107529F10” value in assay [31] was determined as 2 fold.

B11: F010700014 (VHH)
chain: EVQLVESGGGLVQAGGSLRLSCAASGRTFSSYRMGWFRQAPGKEREFVAALSGDGYSTYTANSVNSRFTISRDNAKNTVYLQMNSLKPEDTAIYYCAAKLQYVSGWSYDYPYWGQGTLVTVSSGGGGSGGGGSGGGGSGGGGSGGGGSGGGGSGGGGSEVQLVESGGGLVQAGGSLRLSCAASGRTFSSYRMGWFRQAPGKEREFVAALSGDGYSTYTANSVNSRFTISRDNAKNTVYLQMNSLKPEDTAIYYCAAKLQYVSGWSYDYPYWGQGTLVTVSS
notes: Bivalent anti-IL-13 construct of two VHHs, Pichia pastoris, FLAG3-HIS6-tagged; also called F0107004B02-35GS-F0107004B02; not shown: FLAG3-HIS6 tag
As for B11, the “IC50 … 200 pM hIL13” value in assay [1] came out at 9.4e-08 M. In [6], the “% inhibition” value turned out to be 84% and it took 0.27 nM to reach half-maximal inhibition (IC50). For the same molecule, in [2], the “% inhibition” value worked out at 98% and the midpoint of inhibition, the IC50, lay at 4.8 nM.
